Results taken from IntAct's records for PubMed 31712417.

Biological target: if4e_human EIF4E (UniProt P06730)
Sequence (P06730 whole entry): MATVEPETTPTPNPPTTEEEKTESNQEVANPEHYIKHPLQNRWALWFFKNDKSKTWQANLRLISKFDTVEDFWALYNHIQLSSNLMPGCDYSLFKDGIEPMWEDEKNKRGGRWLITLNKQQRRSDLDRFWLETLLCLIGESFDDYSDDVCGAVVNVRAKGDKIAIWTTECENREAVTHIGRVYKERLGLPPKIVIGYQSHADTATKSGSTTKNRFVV

| Substance | effect of a mutation on the interaction |
| --- | --- |
| Genome polyprotein (Potato virus Y (strain N)), P18247 D1935K | with no effect |
| Genome polyprotein (Potato virus Y (strain N)), P18247 D1954A;D1955A;E1957A | decreasing interaction |
| Genome polyprotein (Potato virus Y (strain N)), P18247 D1954A;D1955A;Q1959A | decreasing interaction |
| Genome polyprotein (Potato virus Y (strain N)), P18247 E1929K;E1930K | with no effect |
| Genome polyprotein (Potato virus Y (strain N)), P18247 E1941K;E1945K | with no effect |
| Genome polyprotein (Potato virus Y (strain N)), P18247 L1961G | decreasing interaction |
| Genome polyprotein (Potato virus Y (strain N)), P18247 M1958A;Q1959A | decreasing interaction |
| Genome polyprotein (Potato virus Y (strain N)), P18247 V1951G;E1952K | decreasing interaction |
